The supplement of paper PMC7877785
± gives the uncertainty stated by the source.

Experiment: self-splicing fitness, log relative to wild type (ln ratio); higher = more splicing; Tetrahymena group I intron in knt gene, E. coli kanamycin selection, DiMSum; sequences stand for … in CUCUCU…GGAGGGAAAAGUUAUCAGGCAUGCACCUGGUAGCUAGUCUUUAAACCAAUAGAUUGCAUCGGUUUAAAAGGCAAGACCGUCAAAUUGCGGGAAAGGGGUCAACAGCCGUUCAGUACCAAGUCUCAGGGGAAACUUUGAGAUGGCCUUGCAAAGGGUAUGGUAAUAAGCUGACGGACAUGGUCCUAACCACGCAGCCAAGUCCUAAGUCAACAGAUCUUCUGUUGAUAUGGAUGCAGUUCACAGACUAAAUGUCGGUCGGGGAAGAUGUAUUCUUCUCAUAAGAUAUAGUCGGACCUCUCCUUAAUGGGAGCUAGCGGAUGAAGUGAUGCAACACUGGAGCCGCUGGGAACUAAUUUGUAUGCGAAAGUAUAUUGAUUAGUUUUGGAGUACUCGUGGUCG
Method in brief: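 Six replicate transformations of E. coli BL21(DE3) with a pET-22b(+) library were grown overnight at 37°C or 30°C. The library randomised all eight P1ex-region intron nucleotides, the intron lying in the knt kanamycin-resistance gene, and plates were LB agar with or without 25 μg/mL kanamycin plus 100 μg/mL carbenicillin, 50 μM IPTG and 0.2% rhamnose. Pooled colonies were amplicon-sequenced on an Illumina HiSeq 2500, and fitness is the DiMSum error-weighted combination of wild-type-normalised replicate fold changes, kanamycin versus none.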

Row | Sequence | self-splicing fitness (ln) (30 °C) | self-splicing fitness (ln) (37 °C)
1 | AGCCAGCAAUAUUACGUCGC | -3.44 ± 0.35 | -2.74 ± 0.21
2 | AGCCAGCAAUAUUACGUGGU | -3.52 ± 0.14 | -3.58 ± 0.2
3 | AGCCAGCAAUAUUACGUUUC | -3.43 ± 0.18 | 
4 | AGCGAGCAAUAUUACGAACU | -2.3 ± 0.42 | -1.17 ± 0.29
5 | AGCGAGCAAUAUUACGAAGU | -3.59 ± 0.29 | -1.57 ± 0.21
6 | AGCGAGCAAUAUUACGACAU | -1.32 ± 0.015 | -0.624 ± 0.034
7 | AGCGAGCAAUAUUACGAGCU | -3.17 ± 0.24 | -2.49 ± 0.22
8 | AGCGAGCAAUAUUACGAUUA | -2.78 ± 0.23 | -2.15 ± 0.23
9 | AGCGAGCAAUAUUACGCACA | -2.76 ± 0.29 | -1.06 ± 0.18
10 | AGCGAGCAAUAUUACGCAGG | -2.43 ± 0.24 | 
11 | AGCGAGCAAUAUUACGCAUA |  | -1.77 ± 0.24
12 | AGCGAGCAAUAUUACGCAUG | -3.33 ± 0.22 | -1.48 ± 0.18
13 | AGCGAGCAAUAUUACGCAUU | -2.63 ± 0.24 | -2.04 ± 0.2
14 | AGCGAGCAAUAUUACGCUUU |  | -2.89 ± 0.27
15 | AGCGAGCAAUAUUACGGAUU |  | -1.96 ± 0.35
16 | AGCGAGCAAUAUUACGGCUC | -3.06 ± 0.34 | -2.06 ± 0.45
17 | AGCGAGCAAUAUUACGGGCU |  | -1.59 ± 0.24
18 | AGCGAGCAAUAUUACGGUAC | -3.58 ± 0.36 | 
19 | AGCGAGCAAUAUUACGGUGA | -3.59 ± 0.21 | -2.77 ± 0.15
20 | AGCGAGCAAUAUUACGGUUU | -2.1 ± 0.18 | -0.574 ± 0.15
21 | AGCGAGCAAUAUUACGUGCU | -4.05 ± 0.29 | -1.41 ± 0.23
22 | AGCGAGCAAUAUUACGUUGG | -2.04 ± 0.12 | -3.5 ± 0.46

Row | Sequence | self-splicing fitness (ln) (30 °C) | self-splicing fitness (ln) (37 °C)
23 | AGCUAGCAAUAUUACGAAAA | -3.04 ± 0.38 | -1.66 ± 0.23
24 | AGCUAGCAAUAUUACGAAUU | -1.74 ± 0.11 | -1.14 ± 0.13
25 | AGCUAGCAAUAUUACGACCG | -1.53 ± 0.1 | -1.06 ± 0.13
26 | AGCUAGCAAUAUUACGAGAC | -2.16 ± 0.24 | -2.14 ± 0.31
27 | AGCUAGCAAUAUUACGAUGA | -2.51 ± 0.21 | -2.54 ± 0.15
28 | AGCUAGCAAUAUUACGCCGU | -1.23 ± 0.13 | -1.2 ± 0.16
29 | AGCUAGCAAUAUUACGCUCU | -2.24 ± 0.18 | -1.57 ± 0.24
30 | AGCUAGCAAUAUUACGGCGA | -0.581 ± 0.081 | 0.0269 ± 0.12
31 | AGCUAGCAAUAUUACGGGAC | -3.37 ± 0.23 | -1.84 ± 0.24
32 | AGCUAGCAAUAUUACGGUUU | -2.66 ± 0.14 | -1.96 ± 0.14
33 | AGCUAGCAAUAUUACGUAUG | -2.52 ± 0.15 | -0.829 ± 0.12
34 | AGCUAGCAAUAUUACGUAUU | -3.8 ± 0.23 | -1.35 ± 0.15
35 | AGCUAGCAAUAUUACGUCCC | -1.33 ± 0.21 | 0.355 ± 0.22
36 | AGCUAGCAAUAUUACGUGUA | -3.86 ± 0.18 | -1.48 ± 0.12
37 | AGCUAGCAAUAUUACGUUCC | -0.609 ± 0.11 | -1.76 ± 0.17
38 | AGCUAGCAAUAUUACGUUGC | -3.91 ± 0.25 | -3.13 ± 0.28
39 | AGGAAGCAAUAUUACGAAUG | -4.53 ± 0.46 | -2.8 ± 0.28
40 | AGGAAGCAAUAUUACGACCA | -0.504 ± 0.06 | -0.317 ± 0.096
41 | AGGAAGCAAUAUUACGACGA | -0.678 ± 0.092 | -0.0243 ± 0.13
42 | AGGAAGCAAUAUUACGAGCG | -1.96 ± 0.24 | -1.08 ± 0.22
43 | AGGAAGCAAUAUUACGAUUU | -0.378 ± 0.078 | 0.0421 ± 0.11
44 | AGGAAGCAAUAUUACGCAUA | -2.39 ± 0.18 | -1.15 ± 0.16
